T1: EsCas13d, nuclease-dead (Eubacterium siraeum, UniProt B0MS50, R295A;H300A;R849A;H854A)
T1 sequence: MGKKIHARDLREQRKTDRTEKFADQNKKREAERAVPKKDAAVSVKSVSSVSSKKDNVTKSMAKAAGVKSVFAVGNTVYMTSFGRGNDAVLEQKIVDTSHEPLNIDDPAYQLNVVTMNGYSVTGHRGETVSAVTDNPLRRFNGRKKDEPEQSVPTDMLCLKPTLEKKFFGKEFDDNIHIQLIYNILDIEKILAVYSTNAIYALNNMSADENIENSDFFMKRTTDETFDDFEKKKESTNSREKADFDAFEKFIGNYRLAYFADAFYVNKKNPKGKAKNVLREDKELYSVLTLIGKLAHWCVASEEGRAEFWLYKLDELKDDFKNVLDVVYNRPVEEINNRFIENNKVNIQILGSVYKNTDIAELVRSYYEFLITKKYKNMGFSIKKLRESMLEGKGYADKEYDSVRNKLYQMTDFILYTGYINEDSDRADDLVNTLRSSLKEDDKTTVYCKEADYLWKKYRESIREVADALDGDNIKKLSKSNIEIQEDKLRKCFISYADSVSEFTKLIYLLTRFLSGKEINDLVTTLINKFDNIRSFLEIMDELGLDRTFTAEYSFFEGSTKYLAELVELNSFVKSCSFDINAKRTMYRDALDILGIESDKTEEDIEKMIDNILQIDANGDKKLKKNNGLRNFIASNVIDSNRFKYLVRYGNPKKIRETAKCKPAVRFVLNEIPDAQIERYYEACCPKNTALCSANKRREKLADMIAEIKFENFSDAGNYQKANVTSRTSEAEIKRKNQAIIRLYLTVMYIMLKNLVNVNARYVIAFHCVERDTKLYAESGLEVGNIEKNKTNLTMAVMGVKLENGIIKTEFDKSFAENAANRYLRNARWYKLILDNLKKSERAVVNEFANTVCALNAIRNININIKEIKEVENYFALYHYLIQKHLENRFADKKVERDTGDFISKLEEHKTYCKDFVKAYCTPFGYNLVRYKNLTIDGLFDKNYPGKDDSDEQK

B1: target 1 insU 3' of 18,insC 3' of 9 (mixed)
RNA 1: CACCCGUGCAAAAAUGCAGGGGUCUAAAACUGAGCGGAUAACCUCUCUAUGG
RNA 2: GGGAAUGGAUCCACAUCUACGAAUUCGUACCAUAUGAGAGGUUACUCCGCUCACCGAGAUCGGAAGAGCACACGU
B2: target 1 A1U,U3G (mixed)
RNA 1: CACCCGUGCAAAAAUGCAGGGGUCUAAAACUGAGCGGAUAACCUCUCUAUGG
RNA 2: GGGAAUGGAUCCACAUCUACGAAUUCGUACCAUAGAGAGGUUAUCCGCGCUCCGAGAUCGGAAGAGCACACGU
B3: target 1 insG 3' of 10,insG 3' of 1 (mixed)
RNA 1: CACCCGUGCAAAAAUGCAGGGGUCUAAAACUGAGCGGAUAACCUCUCUAUGG
RNA 2: GGGAAUGGAUCCACAUCUACGAAUUCGUACCAUAGAGAGGUUGAUCCGCUCAGCCGAGAUCGGAAGAGCACACGU
B4: target 1 insU 3' of 17,insA 3' of 6 (mixed)
RNA 1: CACCCGUGCAAAAAUGCAGGGGUCUAAAACUGAGCGGAUAACCUCUCUAUGG
RNA 2: GGGAAUGGAUCCACAUCUACGAAUUCGUACCAUAGUAGAGGUUAUCCAGCUCACCGAGAUCGGAAGAGCACACGU
B5: target 1 insU 3' of 18,insC 3' of 3 (mixed)
RNA 1: CACCCGUGCAAAAAUGCAGGGGUCUAAAACUGAGCGGAUAACCUCUCUAUGG
RNA 2: GGGAAUGGAUCCACAUCUACGAAUUCGUACCAUAUGAGAGGUUAUCCGCUCCACCGAGAUCGGAAGAGCACACGU
B6: target 1 insA 3' of 17,insU 3' of 7 (mixed)
RNA 1: CACCCGUGCAAAAAUGCAGGGGUCUAAAACUGAGCGGAUAACCUCUCUAUGG
RNA 2: GGGAAUGGAUCCACAUCUACGAAUUCGUACCAUAGAAGAGGUUAUCUCGCUCACCGAGAUCGGAAGAGCACACGU
B7: target 1 insA 3' of 11,insA 3' of 11 (mixed)
RNA 1: CACCCGUGCAAAAAUGCAGGGGUCUAAAACUGAGCGGAUAACCUCUCUAUGG
RNA 2: GGGAAUGGAUCCACAUCUACGAAUUCGUACCAUAGAGAGGUAAUAUCCGCUCACCGAGAUCGGAAGAGCACACGU
B8: target 1 insG 3' of 14,insA 3' of 3 (mixed)
RNA 1: CACCCGUGCAAAAAUGCAGGGGUCUAAAACUGAGCGGAUAACCUCUCUAUGG
RNA 2: GGGAAUGGAUCCACAUCUACGAAUUCGUACCAUAGAGAGGGUUAUCCGCUACACCGAGAUCGGAAGAGCACACGU
B9: target 1 G12U,G15U (mixed)
RNA 1: CACCCGUGCAAAAAUGCAGGGGUCUAAAACUGAGCGGAUAACCUCUCUAUGG
RNA 2: GGGAAUGGAUCCACAUCUACGAAUUCGUACCAUAGAUAGUUUAUCCGCUCACCGAGAUCGGAAGAGCACACGU
B10: target 1 insU 3' of 17,insU 3' of 16 (mixed)
RNA 1: CACCCGUGCAAAAAUGCAGGGGUCUAAAACUGAGCGGAUAACCUCUCUAUGG
RNA 2: GGGAAUGGAUCCACAUCUACGAAUUCGUACCAUAGUAUGAGGUUAUCCGCUCACCGAGAUCGGAAGAGCACACGU
B11: target 1 U3A,A18U (mixed)
RNA 1: CACCCGUGCAAAAAUGCAGGGGUCUAAAACUGAGCGGAUAACCUCUCUAUGG
RNA 2: GGGAAUGGAUCCACAUCUACGAAUUCGUACCAUUGAGAGGUUAUCCGCACACCGAGAUCGGAAGAGCACACGU
B12: target 1 insG 3' of 18,insU 3' of 13 (mixed)
RNA 1: CACCCGUGCAAAAAUGCAGGGGUCUAAAACUGAGCGGAUAACCUCUCUAUGG
RNA 2: GGGAAUGGAUCCACAUCUACGAAUUCGUACCAUAGGAGAGUGUUAUCCGCUCACCGAGAUCGGAAGAGCACACGU
B13: target 1 U19A,A20C (mixed)
RNA 1: CACCCGUGCAAAAAUGCAGGGGUCUAAAACUGAGCGGAUAACCUCUCUAUGG
RNA 2: GGGAAUGGAUCCACAUCUACGAAUUCGUACCCAAGAGAGGUUAUCCGCUCACCGAGAUCGGAAGAGCACACGU
B14: target 1 insG 3' of 10,insC 3' of 10 (mixed)
RNA 1: CACCCGUGCAAAAAUGCAGGGGUCUAAAACUGAGCGGAUAACCUCUCUAUGG
RNA 2: GGGAAUGGAUCCACAUCUACGAAUUCGUACCAUAGAGAGGUUGCAUCCGCUCACCGAGAUCGGAAGAGCACACGU
B15: target 1 U3G (mixed)
RNA 1: CACCCGUGCAAAAAUGCAGGGGUCUAAAACUGAGCGGAUAACCUCUCUAUGG
RNA 2: GGGAAUGGAUCCACAUCUACGAAUUCGUACCAUAGAGAGGUUAUCCGCGCACCGAGAUCGGAAGAGCACACGU
B16: target 1 insG 3' of 10,insA 3' of 2 (mixed)
RNA 1: CACCCGUGCAAAAAUGCAGGGGUCUAAAACUGAGCGGAUAACCUCUCUAUGG
RNA 2: GGGAAUGGAUCCACAUCUACGAAUUCGUACCAUAGAGAGGUUGAUCCGCUCAACCGAGAUCGGAAGAGCACACGU
B17: target 1 A1C,U3G (mixed)
RNA 1: CACCCGUGCAAAAAUGCAGGGGUCUAAAACUGAGCGGAUAACCUCUCUAUGG
RNA 2: GGGAAUGGAUCCACAUCUACGAAUUCGUACCAUAGAGAGGUUAUCCGCGCCCCGAGAUCGGAAGAGCACACGU
B18: target 1 A9G,G17U (mixed)
RNA 1: CACCCGUGCAAAAAUGCAGGGGUCUAAAACUGAGCGGAUAACCUCUCUAUGG
RNA 2: GGGAAUGGAUCCACAUCUACGAAUUCGUACCAUAUAGAGGUUGUCCGCUCACCGAGAUCGGAAGAGCACACGU
B19: target 1 U3A,C4U (mixed)
RNA 1: CACCCGUGCAAAAAUGCAGGGGUCUAAAACUGAGCGGAUAACCUCUCUAUGG
RNA 2: GGGAAUGGAUCCACAUCUACGAAUUCGUACCAUAGAGAGGUUAUCCGUACACCGAGAUCGGAAGAGCACACGU
B20: target 1 insG 3' of 8,insA 3' of 2 (mixed)
RNA 1: CACCCGUGCAAAAAUGCAGGGGUCUAAAACUGAGCGGAUAACCUCUCUAUGG
RNA 2: GGGAAUGGAUCCACAUCUACGAAUUCGUACCAUAGAGAGGUUAUGCCGCUCAACCGAGAUCGGAAGAGCACACGU
B21: target 1 insU 3' of 17,insA 3' of 15 (mixed)
RNA 1: CACCCGUGCAAAAAUGCAGGGGUCUAAAACUGAGCGGAUAACCUCUCUAUGG
RNA 2: GGGAAUGGAUCCACAUCUACGAAUUCGUACCAUAGUAGAAGGUUAUCCGCUCACCGAGAUCGGAAGAGCACACGU
B22: target 1 insG 3' of 21,insG 3' of 4 (mixed)
RNA 1: CACCCGUGCAAAAAUGCAGGGGUCUAAAACUGAGCGGAUAACCUCUCUAUGG
RNA 2: GGGAAUGGAUCCACAUCUACGAAUUCGUACCGAUAGAGAGGUUAUCCGCGUCACCGAGAUCGGAAGAGCACACGU
B23: target 1 insG 3' of 22,insC 3' of 19 (mixed)
RNA 1: CACCCGUGCAAAAAUGCAGGGGUCUAAAACUGAGCGGAUAACCUCUCUAUGG
RNA 2: GGGAAUGGAUCCACAUCUACGAAUUCGUACGCAUCAGAGAGGUUAUCCGCUCACCGAGAUCGGAAGAGCACACGU
B24: target 1 insG 3' of 10,insC 3' of 1 (mixed)
RNA 1: CACCCGUGCAAAAAUGCAGGGGUCUAAAACUGAGCGGAUAACCUCUCUAUGG
RNA 2: GGGAAUGGAUCCACAUCUACGAAUUCGUACCAUAGAGAGGUUGAUCCGCUCACCCGAGAUCGGAAGAGCACACGU
B25: target 1 insG 3' of 18,insG 3' of 2 (mixed)
RNA 1: CACCCGUGCAAAAAUGCAGGGGUCUAAAACUGAGCGGAUAACCUCUCUAUGG
RNA 2: GGGAAUGGAUCCACAUCUACGAAUUCGUACCAUAGGAGAGGUUAUCCGCUCGACCGAGAUCGGAAGAGCACACGU
B26: target 1 A1G,U3G (mixed)
RNA 1: CACCCGUGCAAAAAUGCAGGGGUCUAAAACUGAGCGGAUAACCUCUCUAUGG
RNA 2: GGGAAUGGAUCCACAUCUACGAAUUCGUACCAUAGAGAGGUUAUCCGCGCGCCGAGAUCGGAAGAGCACACGU
B27: target 1 C6U,C22G (mixed)
RNA 1: CACCCGUGCAAAAAUGCAGGGGUCUAAAACUGAGCGGAUAACCUCUCUAUGG
RNA 2: GGGAAUGGAUCCACAUCUACGAAUUCGUAGCAUAGAGAGGUUAUCUGCUCACCGAGAUCGGAAGAGCACACGU

For orientation: Kd means a measure of binding affinity in units of concentration. Read a high Kd as lower affinity.

In the series the target is T1, EsCas13d, nuclease-dead. Put plainly: crRNA (strand 1, pre-loaded); Mg2+; 40 mM Tris-HCl pH 7.5, 150 mM NaCl, 6 mM MgCl2, 1 mM DTT, 0.1% Tween-20, 0.2 mg/ml BSA; 25 C; 10 min per concentration, then washed. As to conditions: tags: His6-TwinStrep-SUMO cleaved; N-terminal SNAP kept (SNAP-Surface 488); label: 3' end held by stalled T7 RNA polymerase.
B1 displayed a Kd of 50 ± 5 nM.

Molecule B2 displayed a Kd of 8.1 ± 0.4 nM.

The molecule B3 gave a Kd of 22.5 ± 2 nM.

For the molecule B4, the Kd worked out at 45 ± 10 nM.

In turn, B5 showed a Kd of 28 ± 4 nM. Against the preceding molecule, the Kd is about 1.6-fold lower.

In turn, B6 had a Kd of 20.6 ± 1.6 nM.

Regarding B7, the affinity, expressed as Kd, was 8.6 ± 0.5 nM.

Consider B8, for which the Kd worked out at 11.4 ± 0.8 nM.

The molecule B9 showed a Kd of 23.3 ± 1.8 nM. This Kd is about 2-fold higher than that of the molecule before.

With B10, the affinity, expressed as Kd, was 41 ± 7 nM.

Molecule B11 had a Kd of 33 ± 5 nM.

Molecule B12 had a Kd of 71 ± 17 nM.

Molecule B13 had a Kd of 45 ± 6 nM. This Kd is about 1.6-fold lower than that of the molecule before.

On to B14, for which the affinity, expressed as Kd, was 23.5 ± 1.7 nM.

In the case of B15, the Kd stood at 11.3 ± 1.3 nM. Against the preceding molecule, the Kd is about 2.1-fold lower.

The molecule B16 showed a Kd of 22.2 ± 1.4 nM.

Regarding B17, binding was put at a Kd of 46 ± 7 nM.

B18: the Kd is 35 ± 6 nM.

In the case of B19, the Kd came to 37 ± 5 nM.

Molecule B20 returned a Kd of 13.2 ± 0.9 nM. Compared with the last molecule, the Kd is about 2.8-fold lower.

In turn, B21 registered a Kd of 15.3 ± 2 nM.

On to B22, for which the Kd is 51 ± 11 nM. This Kd lies about 3.3-fold higher than the previous one.

In turn, B23 returned an equilibrium dissociation constant (Kd) of 52 ± 8 nM.

Turning to B24, binding was put at a Kd of 26.8 ± 2.5 nM.

Take B25: the Kd was roughly 70 nM.

For B26, the Kd was determined as 3.35 ± 0.12 nM.

With B27, the affinity, expressed as Kd, was 39 ± 8 nM.

The record behind these values is publication PMC10786891, “Massively parallel profiling of RNA-targeting CRISPR-Cas13d”.
